Consider ten molecules from patent US20160272683A1 (Novo Nordisk, published 2016).

Numbered stars: 1 amine (or outer) side, 2 acyl side, 3 side chain; on linkers, the order of the positions; unused ones are H or OH. Side chains are listed from the residue outwards. Ends that are not written are not given here. * marks the point of attachment. C20 diacid = O=C(O)CCCCCCCCCCCCCCCCCCC(=O)*; C18 diacid = O=C(O)CCCCCCCCCCCCCCCCC(=O)*; γGlu = O=C(O)[C@H](CCC(=O)[*:2])N[*:1]

As a reminder, the IC50 is the concentration at which inhibition is half-maximal.

B1: [N-terminal(C20 diacid-gGlu), des1, 21S, 23Y, 30S, 31G, 33Y]mimylin (peptide)
peptide: {C20 diacid-γGlu}-ASELSTAALGRLSAELHELSTYPRTETGSGSY-NH2
SMILES: CC(C)C[C@H](NC(=O)[C@H](C)NC(=O)[C@H](C)NC(=O)[C@@H](NC(=O)[C@H](CO)NC(=O)[C@H](CC(C)C)NC(=O)[C@H](CCC(=O)O)NC(=O)[C@H](CO)NC(=O)[C@H](C)NC(=O)CC[C@H](NC(=O)CCCCCCCCCCCCCCCCCCC(=O)O)C(=O)O)[C@@H](C)O)C(=O)NCC(=O)N[C@@H](CCCNC(=N)N)C(=O)N[C@@H](CC(C)C)C(=O)N[C@@H](CO)C(=O)N[C@@H](C)C(=O)N[C@@H](CCC(=O)O)C(=O)N[C@@H](CC(C)C)C(=O)N[C@@H](Cc1c[nH]cn1)C(=O)N[C@@H](CCC(=O)O)C(=O)N[C@@H](CC(C)C)C(=O)N[C@@H](CO)C(=O)N[C@H](C(=O)N[C@@H](Cc1ccc(O)cc1)C(=O)N1CCC[C@H]1C(=O)N[C@@H](CCCNC(=N)N)C(=O)N[C@H](C(=O)N[C@@H](CCC(=O)O)C(=O)N[C@H](C(=O)NCC(=O)N[C@@H](CO)C(=O)NCC(=O)N[C@@H](CO)C(=O)N[C@@H](Cc1ccc(O)cc1)C(N)=O)[C@@H](C)O)[C@@H](C)O)[C@@H](C)O
B2: [N-terminal(C20 diacid-gGlu), des1, 12K, 23Y, 25K, 30S, 31G, 33Y]mimylin (peptide)
peptide: {C20 diacid-γGlu}-ASELSTAALGKLSAELHELATYPKTETGSGSY-NH2
SMILES: CC(C)C[C@H](NC(=O)[C@H](C)NC(=O)[C@H](C)NC(=O)[C@@H](NC(=O)[C@H](CO)NC(=O)[C@H](CC(C)C)NC(=O)[C@H](CCC(=O)O)NC(=O)[C@H](CO)NC(=O)[C@H](C)NC(=O)CC[C@H](NC(=O)CCCCCCCCCCCCCCCCCCC(=O)O)C(=O)O)[C@@H](C)O)C(=O)NCC(=O)N[C@@H](CCCCN)C(=O)N[C@@H](CC(C)C)C(=O)N[C@@H](CO)C(=O)N[C@@H](C)C(=O)N[C@@H](CCC(=O)O)C(=O)N[C@@H](CC(C)C)C(=O)N[C@@H](Cc1c[nH]cn1)C(=O)N[C@@H](CCC(=O)O)C(=O)N[C@@H](CC(C)C)C(=O)N[C@@H](C)C(=O)N[C@H](C(=O)N[C@@H](Cc1ccc(O)cc1)C(=O)N1CCC[C@H]1C(=O)N[C@@H](CCCCN)C(=O)N[C@H](C(=O)N[C@@H](CCC(=O)O)C(=O)N[C@H](C(=O)NCC(=O)N[C@@H](CO)C(=O)NCC(=O)N[C@@H](CO)C(=O)N[C@@H](Cc1ccc(O)cc1)C(N)=O)[C@@H](C)O)[C@@H](C)O)[C@@H](C)O
B3: [N-terminal(C18 diacid-gGlu), des1, 5V, 9V, 10V, 30S, 31G]mimylin (peptide)
peptide: {C18 diacid-γGlu}-ASEVSTAVVGRLSAELHELATLPRTETGSGSP-NH2
SMILES: CC(C)C[C@H](NC(=O)[C@H](CCC(=O)O)NC(=O)[C@H](Cc1c[nH]cn1)NC(=O)[C@H](CC(C)C)NC(=O)[C@H](CCC(=O)O)NC(=O)[C@H](C)NC(=O)[C@H](CO)NC(=O)[C@H](CC(C)C)NC(=O)[C@H](CCCNC(=N)N)NC(=O)CNC(=O)[C@@H](NC(=O)[C@@H](NC(=O)[C@H](C)NC(=O)[C@@H](NC(=O)[C@H](CO)NC(=O)[C@@H](NC(=O)[C@H](CCC(=O)O)NC(=O)[C@H](CO)NC(=O)[C@H](C)NC(=O)CC[C@H](NC(=O)CCCCCCCCCCCCCCCCC(=O)O)C(=O)O)C(C)C)[C@@H](C)O)C(C)C)C(C)C)C(=O)N[C@@H](C)C(=O)N[C@H](C(=O)N[C@@H](CC(C)C)C(=O)N1CCC[C@H]1C(=O)N[C@@H](CCCNC(=N)N)C(=O)N[C@H](C(=O)N[C@@H](CCC(=O)O)C(=O)N[C@H](C(=O)NCC(=O)N[C@@H](CO)C(=O)NCC(=O)N[C@@H](CO)C(=O)N1CCC[C@H]1C(N)=O)[C@@H](C)O)[C@@H](C)O)[C@@H](C)O
B4: [N-terminal(C18 diacid-gGlu), des1, 5V, 9V, 10V, 20V, 30S, 31G]mimylin (peptide)
peptide: {C18 diacid-γGlu}-ASEVSTAVVGRLSAELHEVATLPRTETGSGSP-NH2
SMILES: CC(C)C[C@H](NC(=O)[C@H](CCCNC(=N)N)NC(=O)CNC(=O)[C@@H](NC(=O)[C@@H](NC(=O)[C@H](C)NC(=O)[C@@H](NC(=O)[C@H](CO)NC(=O)[C@@H](NC(=O)[C@H](CCC(=O)O)NC(=O)[C@H](CO)NC(=O)[C@H](C)NC(=O)CC[C@H](NC(=O)CCCCCCCCCCCCCCCCC(=O)O)C(=O)O)C(C)C)[C@@H](C)O)C(C)C)C(C)C)C(=O)N[C@@H](CO)C(=O)N[C@@H](C)C(=O)N[C@@H](CCC(=O)O)C(=O)N[C@@H](CC(C)C)C(=O)N[C@@H](Cc1c[nH]cn1)C(=O)N[C@@H](CCC(=O)O)C(=O)N[C@H](C(=O)N[C@@H](C)C(=O)N[C@H](C(=O)N[C@@H](CC(C)C)C(=O)N1CCC[C@H]1C(=O)N[C@@H](CCCNC(=N)N)C(=O)N[C@H](C(=O)N[C@@H](CCC(=O)O)C(=O)N[C@H](C(=O)NCC(=O)N[C@@H](CO)C(=O)NCC(=O)N[C@@H](CO)C(=O)N1CCC[C@H]1C(N)=O)[C@@H](C)O)[C@@H](C)O)[C@@H](C)O)C(C)C
B5: [N-terminal(C20 diacid-gGlu), des1, 12H, 25H, 30T, 31G, 32T]mimylin (peptide)
peptide: {C20 diacid-γGlu}-ASELSTAALGHLSAELHELATLPHTETGTGTP-NH2
SMILES: CC(C)C[C@H](NC(=O)[C@H](C)NC(=O)[C@H](C)NC(=O)[C@@H](NC(=O)[C@H](CO)NC(=O)[C@H](CC(C)C)NC(=O)[C@H](CCC(=O)O)NC(=O)[C@H](CO)NC(=O)[C@H](C)NC(=O)CC[C@H](NC(=O)CCCCCCCCCCCCCCCCCCC(=O)O)C(=O)O)[C@@H](C)O)C(=O)NCC(=O)N[C@@H](Cc1c[nH]cn1)C(=O)N[C@@H](CC(C)C)C(=O)N[C@@H](CO)C(=O)N[C@@H](C)C(=O)N[C@@H](CCC(=O)O)C(=O)N[C@@H](CC(C)C)C(=O)N[C@@H](Cc1c[nH]cn1)C(=O)N[C@@H](CCC(=O)O)C(=O)N[C@@H](CC(C)C)C(=O)N[C@@H](C)C(=O)N[C@H](C(=O)N[C@@H](CC(C)C)C(=O)N1CCC[C@H]1C(=O)N[C@@H](Cc1c[nH]cn1)C(=O)N[C@H](C(=O)N[C@@H](CCC(=O)O)C(=O)N[C@H](C(=O)NCC(=O)N[C@H](C(=O)NCC(=O)N[C@H](C(=O)N1CCC[C@H]1C(N)=O)[C@@H](C)O)[C@@H](C)O)[C@@H](C)O)[C@@H](C)O)[C@@H](C)O
B6: [N-terminal(C20 diacid), des1, 4G, 15Q, 21Q, 23Y, 30S, 31G, 32T, 33Y]mimylin (peptide)
peptide: {C20 diacid}-ASGLSTAALGRLSQELHELQTYPRTETGSGTY-NH2
SMILES: CC(C)C[C@H](NC(=O)CNC(=O)[C@H](CO)NC(=O)[C@H](C)NC(=O)CCCCCCCCCCCCCCCCCCC(=O)O)C(=O)N[C@@H](CO)C(=O)N[C@H](C(=O)N[C@@H](C)C(=O)N[C@@H](C)C(=O)N[C@@H](CC(C)C)C(=O)NCC(=O)N[C@@H](CCCNC(=N)N)C(=O)N[C@@H](CC(C)C)C(=O)N[C@@H](CO)C(=O)N[C@@H](CCC(N)=O)C(=O)N[C@@H](CCC(=O)O)C(=O)N[C@@H](CC(C)C)C(=O)N[C@@H](Cc1c[nH]cn1)C(=O)N[C@@H](CCC(=O)O)C(=O)N[C@@H](CC(C)C)C(=O)N[C@@H](CCC(N)=O)C(=O)N[C@H](C(=O)N[C@@H](Cc1ccc(O)cc1)C(=O)N1CCC[C@H]1C(=O)N[C@@H](CCCNC(=N)N)C(=O)N[C@H](C(=O)N[C@@H](CCC(=O)O)C(=O)N[C@H](C(=O)NCC(=O)N[C@@H](CO)C(=O)NCC(=O)N[C@H](C(=O)N[C@@H](Cc1ccc(O)cc1)C(N)=O)[C@@H](C)O)[C@@H](C)O)[C@@H](C)O)[C@@H](C)O)[C@@H](C)O
B7: [des1, 4G, 15Q, 21Q, 23Y, 30S, 31K(C20 diacid-gGlu), 32T, 33Y]mimylin (peptide)
peptide: ASGLSTAALGRLSQELHELQTYPRTETGSK([γGlu-C20 diacid])TY-NH2
modifications: N-terminus assumed
SMILES: CC(C)C[C@H](NC(=O)CNC(=O)[C@H](CO)NC(=O)[C@H](C)N)C(=O)N[C@@H](CO)C(=O)N[C@H](C(=O)N[C@@H](C)C(=O)N[C@@H](C)C(=O)N[C@@H](CC(C)C)C(=O)NCC(=O)N[C@@H](CCCNC(=N)N)C(=O)N[C@@H](CC(C)C)C(=O)N[C@@H](CO)C(=O)N[C@@H](CCC(N)=O)C(=O)N[C@@H](CCC(=O)O)C(=O)N[C@@H](CC(C)C)C(=O)N[C@@H](Cc1c[nH]cn1)C(=O)N[C@@H](CCC(=O)O)C(=O)N[C@@H](CC(C)C)C(=O)N[C@@H](CCC(N)=O)C(=O)N[C@H](C(=O)N[C@@H](Cc1ccc(O)cc1)C(=O)N1CCC[C@H]1C(=O)N[C@@H](CCCNC(=N)N)C(=O)N[C@H](C(=O)N[C@@H](CCC(=O)O)C(=O)N[C@H](C(=O)NCC(=O)N[C@@H](CO)C(=O)N[C@@H](CCCCNC(=O)CC[C@H](NC(=O)CCCCCCCCCCCCCCCCCCC(=O)O)C(=O)O)C(=O)N[C@H](C(=O)N[C@@H](Cc1ccc(O)cc1)C(N)=O)[C@@H](C)O)[C@@H](C)O)[C@@H](C)O)[C@@H](C)O)[C@@H](C)O

The assay addresses T1, human amylin receptor (human calcitonin receptor + human RAMP3) (human) (UniProt P30988).
T1 sequence (looked up) 1: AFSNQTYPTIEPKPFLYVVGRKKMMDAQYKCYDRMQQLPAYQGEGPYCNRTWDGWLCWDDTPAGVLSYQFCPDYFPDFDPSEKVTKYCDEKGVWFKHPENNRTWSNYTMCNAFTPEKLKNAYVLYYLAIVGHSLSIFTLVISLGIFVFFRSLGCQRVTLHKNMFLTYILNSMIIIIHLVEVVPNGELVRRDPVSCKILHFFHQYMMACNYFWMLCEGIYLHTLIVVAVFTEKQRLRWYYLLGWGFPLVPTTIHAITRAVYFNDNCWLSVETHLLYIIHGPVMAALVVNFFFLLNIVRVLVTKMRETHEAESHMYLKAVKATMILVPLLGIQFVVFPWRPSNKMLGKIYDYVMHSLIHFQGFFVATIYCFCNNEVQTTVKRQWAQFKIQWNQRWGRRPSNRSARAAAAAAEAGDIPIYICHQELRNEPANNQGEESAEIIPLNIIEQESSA
T1 sequence (looked up) 2: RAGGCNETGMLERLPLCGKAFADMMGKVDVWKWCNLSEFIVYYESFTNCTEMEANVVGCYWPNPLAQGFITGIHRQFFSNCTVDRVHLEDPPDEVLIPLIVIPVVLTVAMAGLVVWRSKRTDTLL
The assay can be described thus: whole-cell competition vs 125I-rat amylin (Assay Va).
As to B1, the IC50 turned out to be 0.186 nM.

Regarding B2, the IC50 is 0.588 nM.

Consider B3, for which the IC50 is 1.17 nM.

On to {C18 diacid-γGlu}-ASELTTAVLGRLEAELHELTTLPRTETGTGTP-NH2 [[N-terminal(C18 diacid-gGlu), des1, 6T, 9V, 14E, 21T, 30T, 31G, 32T]mimylin], for which the IC50 is 19.7 nM.

Take B4: the half-maximal inhibitory concentration (IC50) stood at 1.65 nM.

On to {C18 diacid-γGlu}-ASELTTAVLGRLSAELHELATLPRTETGTGTP-NH2 [[N-terminal(C18 diacid-gGlu), des1, 6T, 9V, 30T, 31G, 32T]mimylin], for which the IC50 turned out to be 2.15 nM.

In the case of {C18 diacid-γGlu}-ASELTTAVLGRLSAELHELATLPRTETGSGTP-NH2 [[N-terminal(C18 diacid-gGlu), des1, 6T, 9V, 30S, 31G, 32T]mimylin], the IC50 came to 0.652 nM.

As to B5, the IC50 was 1.51 nM.

Take B6: the IC50 is 0.222 nM.

With B7, the IC50 is 5.45 nM.
